Kd, koff and kon data for six substances are collected here from PMC10314757.

One assay deals with FcγRIIIb (CD16b) (UniProt O75015). As to the kind of experiment: SPR; BIAcore X100; receptor (20 µg/mL) captured by anti-His-tag antibodies on a CM5 chip, each receptor on its own chip; charge variant as analyte, 2.5 µM to 40 µM, single-cycle; HBS-EP buffer (10 mM HEPES pH 7.4, 150 mM NaCl, 50 µM EDTA, 0.005% P20).
A further assay has as its target FcγRIIIa (CD16a) (UniProt P08637). The description is as above.

What is called Kd is the equilibrium constant for the complex coming apart. Lower therefore signals tighter binding. The term koff denotes the rate constant with which the complex falls apart. Low values mean a long-lived complex, high ones a short-lived complex. What is called kon is the second-order rate constant of association. Higher therefore signals faster complex formation. In the assay with FcγRIIIb (CD16b), “trastuzumab proposed biosimilar, acidic charge variants (acidic peak) (antibody)” showed a Kd of 14.3 µM, an off-rate constant (koff) of 0.82 s⁻¹ and a kon of 106000 M⁻¹ s⁻¹.

In the assay with FcγRIIIa (CD16a), “trastuzumab proposed biosimilar, acidic charge variants (acidic peak) (antibody; other documents disagree on this pair)” showed a koff of 0.08 s⁻¹ and a kon of 102000 M⁻¹ s⁻¹.

In the assay with FcγRIIIb (CD16b), “trastuzumab proposed biosimilar, basic charge variants (basic peak) (antibody)” gave a koff of 0.33 s⁻¹ and an on-rate (kon) of 25600 M⁻¹ s⁻¹.

In the assay with FcγRIIIa (CD16a), “trastuzumab proposed biosimilar, basic charge variants (basic peak) (antibody; other documents disagree on this pair)” returned an off-rate (koff) of 0.05 s⁻¹ and a kon of 31300 M⁻¹ s⁻¹.

For “trastuzumab proposed biosimilar, main charge variant (main peak) (antibody)”, in the assay with FcγRIIIb (CD16b), the off-rate (koff) turned out to be 0.34 s⁻¹ and the kon was 15400 M⁻¹ s⁻¹.

As for “trastuzumab proposed biosimilar, main charge variant (main peak) (antibody; other documents disagree on this pair)”, in the assay with FcγRIIIa (CD16a), the koff turned out to be 0.09 s⁻¹ and the kon is 36600 M⁻¹ s⁻¹.
